# B1: EH domain-containing protein 3 (Homo sapiens), Q9NZN3 (parent)
# chain: MFSWLGTDDRRRKDPEVFQTVSEGLKKLYKSKLLPLEEHYRFHEFHSPALEDADFDNKPMVLLVGQYSTGKTTFIRYLLEQDFPGMRIGPEPTTDSFIAVMQGDMEGIIPGNALVVDPKKPFRKLNAFGNAFLNRFVCAQLPNPVLESISVIDTPGILSGEKQRISRGYDFAAVLEWFAERVDRIILLFDAHKLDISDEFSEVIKALKNHEDKMRVVLNKADQIETQQLMRVYGALMWSLGKIVNTPEVIRVYIGSFWSHPLLIPDNRKLFEAEEQDLFRDIQSLPRNAALRKLNDLIKRARLAKVHAYIISSLKKEMPSVFGKDNKKKELVNNLAEIYGRIEREHQISPGDFPNLKRMQDQLQAQDFSKFQPLKSKLLEVVDDMLAHDIAQLMVLVRQEESQRPIQMVKGGAFEGTLHGPFGHGYGEGAGEGIDDAEWVVARDKPMYDEIFYTLSPVDGKITGANAKKEMVRSKLPNSVLGKIWKLADIDKDGMLDDDEFALANHLIKVKLEGHELPNELPAHLLPPSKRKVAE
# partner: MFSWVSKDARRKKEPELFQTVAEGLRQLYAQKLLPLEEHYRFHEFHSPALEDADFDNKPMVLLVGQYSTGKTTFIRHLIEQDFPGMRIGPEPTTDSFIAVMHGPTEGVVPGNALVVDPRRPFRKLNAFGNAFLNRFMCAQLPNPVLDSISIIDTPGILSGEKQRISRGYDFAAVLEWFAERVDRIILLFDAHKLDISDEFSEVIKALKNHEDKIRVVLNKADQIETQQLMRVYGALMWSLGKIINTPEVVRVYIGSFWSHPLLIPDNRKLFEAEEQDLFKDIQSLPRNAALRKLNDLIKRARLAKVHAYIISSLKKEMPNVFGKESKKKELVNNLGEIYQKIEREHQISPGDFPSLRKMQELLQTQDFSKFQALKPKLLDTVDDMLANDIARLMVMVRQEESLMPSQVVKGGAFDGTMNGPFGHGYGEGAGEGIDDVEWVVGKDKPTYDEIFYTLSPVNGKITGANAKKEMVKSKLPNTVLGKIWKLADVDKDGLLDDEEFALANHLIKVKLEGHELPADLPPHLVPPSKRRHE
# Variants of: B1
# Details: with ehd1_human EHD1, Q9H4M9
row,Variant,effect of a mutation on the interaction
1,MFSWLGTDDRRRKDPEVFQTVSEGLKKLYKSKLLPLEEHYRFHEFHSPALEDADFDNKPMVLLVGQYSTGKTTFIRYLLEQDFPGMRIGPEPTTDSFIAVMQGDMEGIIPGNALVVDPKKPFRKLNAFGNAFLNRFVCAQLPNPVLESISVIDTPGILSGEKQRISRGYDFAAVLEWFAERVDRIILLFDAHKLDISDEFSEVIKALKNHEDKMRVVLNKADQIETQQLMRVYGALMWSLGKIVNTPEVIRVYIGSFWSHPLLIPDNRKLFEAEEQDLFRDIQSLPRNAALRKLNDLIKRARLAKVHAYIISSLRKEMPSVFGKDNKKKELVNNLAEIYGRIEREHQISPGDFPNLKRMQDQLQAQDFSKFQPLKSKLLEVVDDMLAHDIAQLMVLVRQEESQRPIQMVKGGAFEGTLHGPFGHGYGEGAGEGIDDAEWVVARDKPMYDEIFYTLSPVDGKITGANAKKEMVRSKLPNSVLGKIWKLADIDKDGMLDDDEFALANHLIKVRLEGHELPNELPAHLLPPSKRKVAE [K315R;K511R],with no effect
2,MFSWLGTDDRRRKDPEVFQTVSEGLKKLYKSKLLPLEEHYRFHEFHSPALEDADFDNKPMVLLVGQYSTGKTTFIRYLLEQDFPGMRIGPEPTTDSFIAVMQGDMEGIIPGNALVVDPKKPFRKLNAFGNAFLNRFVCAQLPNPVLESISVIDTPGILSGEKQRISRGYDFAAVLEWFAERVDRIILLFDAHKLDISDEFSEVIKALKNHEDKMRVVLNKADQIETQQLMRVYGALMWSLGKIVNTPEVIRVYIGSFWSHPLLIPDNRKLFEAEEQDLFRDIQSLPRNAALRKLNDLIKRARLAKVHAYIISSLKKEMPSVFGKDNKKKELVNNLAEIYGRIEREHQISPGDFPNLKRMQDQLQAQDFSKFQPLKSKLLEVVDDMLAHDIAQLMVLVRQEESQRPIQMVKGGAFEGTLHGPFGHGYGEGAGEGIDDAEWVVARDKPMYDEIFYTLSPVDGKITGANAKKEMVRSKLPNSVLGKIWKLADIDKDGMLDDDEFALANHLIKVRLEGHELPNELPAHLLPPSKRKVAE [K511R],with no effect
3,MFSWLGTDDRRRKDPEVFQTVSEGLKKLYKSKLLPLEEHYRFHEFHSPALEDADFDNKPMVLLVGQYSTGKTTFIRYLLEQDFPGMRIGPEPTTDSFIAVMQGDMEGIIPGNALVVDPKKPFRKLNAFGNAFLNRFVCAQLPNPVLESISVIDTPGILSGEKQRISRGYDFAAVLEWFAERVDRIILLFDAHKLDISDEFSEVIKALKNHEDKMRVVLNKADQIETQQLMRVYGALMWSLGKIVNTPEVIRVYIGSFWSHPLLIPDNRKLFEAEEQDLFRDIQSLPRNAALRKLNDLIKRARLAKVHAYIISSLRKEMPSVFGKDNKKKELVNNLAEIYGRIEREHQISPGDFPNLKRMQDQLQAQDFSKFQPLKSKLLEVVDDMLAHDIAQLMVLVRQEESQRPIQMVKGGAFEGTLHGPFGHGYGEGAGEGIDDAEWVVARDKPMYDEIFYTLSPVDGKITGANAKKEMVRSKLPNSVLGKIWKLADIDKDGMLDDDEFALANHLIKVKLEGHELPNELPAHLLPPSKRKVAE [K315R],with no effect

# Variants of: B1
# Details: with ehd1_human EHD1, Q9H4M9
# Remark: another data set of the same source
row,Variant,effect of a mutation on the interaction
1,MFSWLGTDDRRRKDPEVFQTVSEGLKKLYKSKLLPLEEHYRFHEFHSPALEDADFDNKPMVLLVGQYSTGKTTFIRYLLEQDFPGMRIGPEPTTDSFIAVMQGDMEGIIPGNALVVDPKKPFRKLNAFGNAFLNRFVCAQLPNPVLESISVIDTPGILSGEKQRISRGYDFAAVLEWFAERVDRIILLFDAHKLDISDEFSEVIKALKNHEDKMRVVLNKADQIETQQLMRVYGALMWSLGKIVNTPEVIRVYIGSFWSHPLLIPDNRKLFEAEEQDLFRDIQSLPRNAALRKLNDLIKRARLAKVHAYIISSLRKEMPSVFGKDNKKKELVNNLAEIYGRIEREHQISPGDFPNLKRMQDQLQAQDFSKFQPLKSKLLEVVDDMLAHDIAQLMVLVRQEESQRPIQMVKGGAFEGTLHGPFGHGYGEGAGEGIDDAEWVVARDKPMYDEIFYTLSPVDGKITGANAKKEMVRSKLPNSVLGKIWKLADIDKDGMLDDDEFALANHLIKVRLEGHELPNELPAHLLPPSKRKVAE [K315R;K511R],disrupting interaction
2,MFSWLGTDDRRRKDPEVFQTVSEGLKKLYKSKLLPLEEHYRFHEFHSPALEDADFDNKPMVLLVGQYSTGKTTFIRYLLEQDFPGMRIGPEPTTDSFIAVMQGDMEGIIPGNALVVDPKKPFRKLNAFGNAFLNRFVCAQLPNPVLESISVIDTPGILSGEKQRISRGYDFAAVLEWFAERVDRIILLFDAHKLDISDEFSEVIKALKNHEDKMRVVLNKADQIETQQLMRVYGALMWSLGKIVNTPEVIRVYIGSFWSHPLLIPDNRKLFEAEEQDLFRDIQSLPRNAALRKLNDLIKRARLAKVHAYIISSLKKEMPSVFGKDNKKKELVNNLAEIYGRIEREHQISPGDFPNLKRMQDQLQAQDFSKFQPLKSKLLEVVDDMLAHDIAQLMVLVRQEESQRPIQMVKGGAFEGTLHGPFGHGYGEGAGEGIDDAEWVVARDKPMYDEIFYTLSPVDGKITGANAKKEMVRSKLPNSVLGKIWKLADIDKDGMLDDDEFALANHLIKVRLEGHELPNELPAHLLPPSKRKVAE [K511R],decreasing interaction

# Source: IntAct's records for PubMed 26226295
